Results taken from US20200062863A1 (CSL BEHRING, published 2020).
Substitutions are numbered along the chain they refer to.

Tests used:
Assay in all cases: Western blot of culture supernatant (non-reducing SDS-PAGE) probed with 3F7 mAb, anti-human IgG-FITC
N516S = target: T1, N516S
T1 construct: also called Mu-FXII N516S mutant with C-terminal 8xHis-tag; mutant l)
T1 single chain: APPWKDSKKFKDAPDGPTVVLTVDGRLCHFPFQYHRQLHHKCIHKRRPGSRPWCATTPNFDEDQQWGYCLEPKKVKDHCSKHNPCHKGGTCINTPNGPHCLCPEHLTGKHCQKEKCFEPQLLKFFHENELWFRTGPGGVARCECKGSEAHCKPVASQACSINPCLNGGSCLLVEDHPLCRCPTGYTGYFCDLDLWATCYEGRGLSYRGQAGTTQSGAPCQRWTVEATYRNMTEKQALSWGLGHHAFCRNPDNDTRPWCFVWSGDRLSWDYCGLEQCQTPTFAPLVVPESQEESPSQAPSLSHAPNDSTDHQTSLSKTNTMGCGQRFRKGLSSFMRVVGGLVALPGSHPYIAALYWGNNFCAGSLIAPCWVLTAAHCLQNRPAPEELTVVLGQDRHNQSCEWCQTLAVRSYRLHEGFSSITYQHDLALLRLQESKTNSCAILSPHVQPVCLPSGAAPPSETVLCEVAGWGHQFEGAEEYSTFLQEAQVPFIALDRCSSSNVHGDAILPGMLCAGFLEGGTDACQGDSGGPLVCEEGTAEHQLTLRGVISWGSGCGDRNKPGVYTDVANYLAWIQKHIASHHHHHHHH
Method: (§1) Proteins were then transferred electrophoretically onto nitrocellulose filters and blocked for 1 hour in 5% Milk powder in Tris-buffered saline with 0.05% Tween-20 (TTBS). Filters were then incubated for 1 hour with either 3F7 mAb or an anti-His mAb 3H3 (both at […] in TTBS with 5% Milk powder), washed thoroughly with TTBS, then incubated for a further hour with anti-human IgG-FITC or anti-mouse IgG-FITC, respectively (Millipore, USA; both at 0.25 mg/ml in TTBS with 5% Milk powder). Following further washing of membranes in TTBS, Ab-FITC bound proteins were visualized using a Typhoon variable mode analyzer (GE Healthcare, USA).

N376D = target: T2, N376D
T2 construct: also called Mu-FXII N376D mutant with C-terminal 8xHis-tag; mutant a)
T2 single chain: T1 single chain with N357D, S497N
Method: as §1

Q450R = target: T3, Q450R
T3 construct: also called Mu-FXII Q450R mutant with C-terminal 8xHis-tag; mutant g)
T3 single chain: T1 single chain with Q431R, S497N
Method: as §1

S452G = target: T4, S452G
T4 construct: also called Mu-FXII S452G mutant with C-terminal 8xHis-tag; mutant i)
T4 single chain: T1 single chain with S433G, S497N
Method: as §1

Measured: binding result

B1: monoclonal antibody 3F7 (fully human IgG4/lambda) (antibody, V domains shown)
VH: EVQLLESGGGLVQPGGSLRLSCAASGFTFSKYIMQWVRQAPGKGLEWVSGIRPSGGTTVYADSVKGRFTISRDNSKNTLYLQMNSLRAEDTAVYYCARALPRSGYLISPHYYYYALDVWGQGTTVTVSS
VL: QSELTQPPSASGTPGQRVTISCSGSSSNIGRNYVYWYQQVPGTAPKLLIYSNNQRPSGVPDRFSGSKSGTSASLVISGLRSEDEADYYCAAWDASLRGVFGGGTKLTVLG
notes: also called 3F7 mAb; MAb 3F7
binds: all assays above
